In publication PMC7384550 (Journal of molecular biology, 2019):
Where a chain is given by its changes, count along the chain named. In names and notes the source's numbering stands.

T1: SinR (Bacillus subtilis, UniProt P06533 1-111)
T1 sequence: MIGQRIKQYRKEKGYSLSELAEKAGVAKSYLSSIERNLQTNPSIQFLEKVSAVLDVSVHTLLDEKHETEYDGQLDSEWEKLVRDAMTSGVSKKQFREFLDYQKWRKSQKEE

B1: 22-mer inverted repeat, 6-FAM (dsDNA)
DNA 1: TTTGTTCTCTAAAGAGAACTTA
DNA 2: TAAGTTCTCTTTAGAGAACAAA
B2: SinR (full-length, tetrameric transcriptional repressor) (natural protein, Bacillus subtilis, UniProt P06533 1-111, looked up)
chain: T1 sequence
B3: 90 bp tapA-sipW-tasA promoter bending substrate (dsDNA)
DNA 1: GAAAGTTCTCTAAAGAGAACATTATAAATAATAAGGGAAGTGCAGTAAATTAGAGGAAAATCATGTATTGTTCTCTAAAGAGAACTTAG
DNA 2: CTAAGTTCTCTTTAGAGAACAATATCATGATTTTCCTCTAATTTACTGCACTTCCCTTATTATTTATAATGTTCTCTTTAGAGAACTTTC
modifications: internal fluorescein-dT (T22 of strand 1); internal BHQ-1-dT (T25 of strand 2), both written as T
B4: SinI (antagonist of SinR) (natural protein, Bacillus subtilis, UniProt P23308 1-57, looked up)
chain: MKNAKQEHFELDQEWVELMVEAKEANISPEEIRKYLLLNKKSAHPGPAARSHTVNPF
B5: SinI^quad (SinI K34E, L38Y, K41W, S42R) (natural protein, Bacillus subtilis, UniProt P23308 1-57, looked up)
chain: B4 chain with K34E, L38Y, K41W, S42R

What was measured:
SEC = molecular target: the molecule itself; assay: SEC
SinR [1] = molecular target: T1, SinR; assay: fluorescence anisotropy/polarization
SinR [2] = molecular target: T1, SinR; assay: fluorescence quenching DNA-bending assay
[3] = molecular target: B2; assay: AUC
AUC = molecular target: the molecule itself; assay: AUC

Binder | stoichiometry N (SEC) | binding result [3] | also measured
EYDGQLDSEWEKLVRDAMTSGVSKKQFREFLDYQKWRKSQKEE (domain or fragment, Bacillus subtilis, UniProt P06533 69-111, looked up) [SinRC, the C-terminal oligomerization domain of SinR (residues 69-111)] | 4 |  | 
B1 |  |  | Kd (SinR [1]): 0.249 ± 0.038 µM
B2 | 4 |  | 
B3 |  |  | binding result (SinR [2]): binds
B4 | 2 | binds | 
B5 |  | binds | stoichiometry N (AUC): 2
